Results as given in the Immune Epitope Database (IEDB).

Tests used:
[1] = target: HLA-A*02:19; assay: IEDB peptide-MHC binding, purified MHC/direct/fluorescence; filed as Kd, often an IC50 or EC50 that approximates it; ≥ and ≤ were set here for values at or beyond the usual limits of such assays; conditions: source organism: Kurkino virus
[2] = target: HLA-A*69:01; assay: as above
[3] = target: HLA-A*02:12; assay: as above; conditions: source organism: Kurkino virus
[4] = target: HLA-A*02:01; assay: as above; conditions: source organism: Orthohantavirus dobravaense
[5] = target: HLA-A*02:11; assay: as above; conditions: source organism: Kurkino virus
[6] = target: HLA-A*32:15; assay: IEDB peptide-MHC binding, purified MHC/competitive/fluorescence; filed as Kd, often an IC50 or EC50 that approximates it; ≥ and ≤ were set here for values at or beyond the usual limits of such assays; conditions: source organism: Kurkino virus
[7] = target: HLA-B*40:13; assay: as above; conditions: source organism: Kurkino virus
[8] = target: HLA-B*45:06; assay: as above; conditions: source organism: Kurkino virus
[9] = target: HLA-A*03:19; assay: as above; conditions: source organism: Kurkino virus
[10] = target: HLA-B*15:42; assay: as above; conditions: source organism: Kurkino virus
[11] = target: HLA-A*32:07; assay: as above; conditions: source organism: Kurkino virus
[12] = target: HLA-B*27:20; assay: as above; conditions: source organism: Kurkino virus
[13] = target: HLA-B*83:01; assay: as above; conditions: source organism: Kurkino virus
[14] = target: HLA-A*31:01; assay: IEDB peptide-MHC binding, purified MHC/direct/fluorescence; filed as Kd, often an IC50 or EC50 that approximates it; ≥ and ≤ were set here for values at or beyond the usual limits of such assays; conditions: source organism: Camelpox virus CMS
[15] = target: HLA-B*57:01; assay: as above; conditions: source organism: Camelpox virus CMS
[16] = target: HLA-A*01:01; assay: as above; conditions: source organism: Camelpox virus CMS
[17] = target: HLA-B*15:01; assay: as above; conditions: source organism: Camelpox virus CMS
[18] = target: HLA-B*48:01; assay: as above; conditions: source organism: Camelpox virus CMS
[19] = target: HLA-B*07:02; assay: as above; conditions: source organism: Camelpox virus CMS
[20] = target: HLA-B*58:01; assay: as above; conditions: source organism: Camelpox virus CMS
[21] = target: HLA-B*27:05; assay: as above; conditions: source organism: Camelpox virus CMS
[22] = target: HLA-A*26:01; assay: as above; conditions: source organism: Variola virus
[23] = target: HLA-B*46:01; assay: as above; conditions: source organism: Camelpox virus CMS
[24] = target: HLA-A*11:01; assay: IEDB peptide-MHC binding, purified MHC/competitive/fluorescence; filed as Kd, often an IC50 or EC50 that approximates it; ≥ and ≤ were set here for values at or beyond the usual limits of such assays; conditions: source organism: Vaccinia virus Tian Tan
[25] = target: HLA-B*39:01; assay: as above; conditions: source organism: Vaccinia virus Tian Tan
[26] = target: HLA-A*02:01; assay: as above; conditions: source organism: Vaccinia virus Tian Tan
[27] = target: HLA-B*15:17; assay: as above; conditions: source organism: Vaccinia virus Tian Tan
[28] = target: HLA-A*26:02; assay: as above; conditions: source organism: Vaccinia virus Tian Tan
[29] = target: HLA-B*35:01; assay: as above; conditions: source organism: Vaccinia virus Tian Tan
[30] = target: HLA-B*15:09; assay: as above; conditions: source organism: Vaccinia virus Tian Tan
[31] = target: HLA-A*68:02; assay: as above; conditions: source organism: Vaccinia virus Tian Tan
[32] = target: HLA-B*15:03; assay: IEDB peptide-MHC binding, purified MHC/competitive/radioactivity; filed as Kd, often an IC50 or EC50 that approximates it; ≥ and ≤ were set here for values at or beyond the usual limits of such assays; conditions: source organism: Vaccinia virus WR
[33] = target: HLA-A*32:01; assay: as above; conditions: source organism: Vaccinia virus WR

SLYSGFPSL
Kd [1]: 42 nM
Kd ([2]; source organism: Orthohantavirus dobravaense): ≤ 1 nM
Kd [3]: ≤ 1 nM
Kd [4]: ≤ 1 nM
Kd [5]: ≤ 1 nM
Kd [6]: 30.5 nM
Kd [7]: 160 nM
Kd [8]: ≥ 5000 nM
Kd [9]: 26.1 nM
Kd [10]: ≥ 5000 nM
Kd [11]: 2.5 nM
Kd [12]: 26.5 nM
Kd [13]: ≥ 5000 nM

WQFAIHYSF
Kd [14]: ≥ 20000 nM
Kd [15]: ≥ 20000 nM
Kd [16]: ≥ 20000 nM
Kd ([2]; source organism: Camelpox virus CMS): ≥ 20000 nM
Kd [17]: 130 nM
Kd [18]: 160 nM
Kd [19]: ≥ 20000 nM
Kd [20]: ≥ 20000 nM
Kd [21]: 277 nM
Kd [22]: ≥ 20000 nM
Kd [23]: ≥ 20000 nM
Kd [24]: ≥ 20000 nM
Kd [25]: 604 nM
Kd [26]: ≥ 20000 nM
Kd [27]: 4670 nM
Kd [28]: 833 nM
Kd [29]: 922 nM
Kd [30]: ≥ 20000 nM
Kd [31]: ≥ 20000 nM
Kd [32]: 4.47 nM
Kd [33]: 2.75 nM
